Assays:
[1] = system: (Leu-Arg-Gly-Gly-NH)2 -rhodamine; assay: Fluorescence assay of proteinase activity of virus and recombinant proteinase preparations; format: biochemical; conditions: about 5% pure, from Sf9 cells; Ad2 DNA and H2ts1 virions to provide cofactor
Description: The nature of the proteinase cofactor(s) was pursued with the aid of the second assay, which utilizes the substrate (Leu-Arg-Gly-Gly-NH)2 -rhodamine. The design of this substrate was based on two facts. (1) It was known that the proteinase present in disrupted Ad2 virions would cleave small peptides with sequence similar to that found at natural cleavage sites in adenovirus virion precursors (Webster et al., 1989). (2) Cleavage of either tetra-peptide sequence from the substituted rhodamine substrate produces a very large increase, up to a 3500-fold, in fluorescence. Under conditions where only a small fraction of the rhodamine substrate is cleaved, the increase in fluorescence is proportional to the amount of proteinase present and to the time of incubation. Thus, the fluorescence assay provides a quantitative method for assessing proteinase activity that is more sensitive convenient and rapid than the gel electrophoresis assay.
Assays were performed in 400 μl of Assay Buffer (50 mM Tris-HCl, pH 7.4, 25 mM NaCl, 10 mM octylglucoside, and 1 mM dithiothreitol). […] When present, the number of disrupted virus particles was 10^10 and the amount of recombinant proteinase was 0.12 mAU280 nm. […] After 30 minutes at 37° C., a 360 μl aliquot of the reaction was added to 340 μl of Assay Buffer minus octylglucoside, and the increase in fluorescence was measured. The excitation wavelength was 492 nm and the emission wavelength was 523 nm, both with a bandwidth of 5 nm. The change in fluorescence, ΔF, is the magnitude of the fluorescence from the sample minus the magnitude of the fluorescence from an identical solution without enzyme.
Disrupted virus was obtained as follows: Twice CsCl-banded virus was dialyzed against 10 mM Tris-HCl, pH 8.0, 1mM EDTA and centrifuged at 100,000×g for 1 hour. The pellet was suspended in 10 mM Tris-HCl, pH 6.8, containing 20% (v/v) glycerol and, after three 10 second bursts of sonication, was stored at -20° C. The fluorogenic substrate was synthesized and purified at BNL by Dr. Walter Mangel, using methods similar to those previously described by Dr. Mangel. These methods are described in two U.S. Patents (U.S. Pat. No. 4,557,862 entitled "Rhodamine derivatives as fluorogenic substrates for proteinases" by Mangel, W. F., Leytus, S., and L. Helhado; issued Dec. 10, 1985; U.S. patent application Ser. No. 780,552; "Novel rhodamine derivatives as fluorogenic substrates" by Mangel, W. F., Leytus, S., and L. Helhado; filing date Sep. 24, 1985) and in other publications by Mangel and co-workers.

[2] = system: Ad2 major core protein precursor, pVII; assay: Assay of adenovirus proteinase activity in crude extracts: cleavage of [35S]-methionine-labeled pVII (SDS-PAGE, autoradiography); format: biochemical, adenovirus type 2; conditions: purified from baculovirus-infected Sf9 insect cells

## vNPVAd2EP: recombinant Ad2 proteinase expressed in Sf9 insect cells from baculovirus vector vNPVAd2EP
[1]
  Specific activity: equivalent to that of bacterially-produced proteinase
[2]
  Activity in the crude extract assay: active

— patent publication US5935840A, “Activated recombinant adenovirus proteinases” (priority 1995, dated 1999)
